# Measured values reported in the supplement of paper PMC10065799, “High-throughput profiling of sequence recognition by tyrosine kinases and SH2 domains using bacterial peptide display” (eLife, 2023).
# Assays:
# [1] = target: c-Src SH2; assay: SH2 binding enrichment of the phosphorylated peptide, bacterial display (enrichment ratio); higher = better substrate or ligand; peptides without Tyr show the background
# [2] = target: Grb2 SH2 (UniProt P62993); assay: as above
# [3] = target: SHP2-C SH2; assay: as above
# [4] = test system: c-Abl (mouse); assay: phosphorylation enrichment, bacterial display (enrichment ratio); higher = better substrate or ligand; peptides without Tyr show the background
# [5] = target: FGFR3 (UniProt P22607); assay: as above
# [6] = target: EPHB1 (UniProt P54762); assay: as above
# Chain of EPHB1 (P54762 whole entry, looked up): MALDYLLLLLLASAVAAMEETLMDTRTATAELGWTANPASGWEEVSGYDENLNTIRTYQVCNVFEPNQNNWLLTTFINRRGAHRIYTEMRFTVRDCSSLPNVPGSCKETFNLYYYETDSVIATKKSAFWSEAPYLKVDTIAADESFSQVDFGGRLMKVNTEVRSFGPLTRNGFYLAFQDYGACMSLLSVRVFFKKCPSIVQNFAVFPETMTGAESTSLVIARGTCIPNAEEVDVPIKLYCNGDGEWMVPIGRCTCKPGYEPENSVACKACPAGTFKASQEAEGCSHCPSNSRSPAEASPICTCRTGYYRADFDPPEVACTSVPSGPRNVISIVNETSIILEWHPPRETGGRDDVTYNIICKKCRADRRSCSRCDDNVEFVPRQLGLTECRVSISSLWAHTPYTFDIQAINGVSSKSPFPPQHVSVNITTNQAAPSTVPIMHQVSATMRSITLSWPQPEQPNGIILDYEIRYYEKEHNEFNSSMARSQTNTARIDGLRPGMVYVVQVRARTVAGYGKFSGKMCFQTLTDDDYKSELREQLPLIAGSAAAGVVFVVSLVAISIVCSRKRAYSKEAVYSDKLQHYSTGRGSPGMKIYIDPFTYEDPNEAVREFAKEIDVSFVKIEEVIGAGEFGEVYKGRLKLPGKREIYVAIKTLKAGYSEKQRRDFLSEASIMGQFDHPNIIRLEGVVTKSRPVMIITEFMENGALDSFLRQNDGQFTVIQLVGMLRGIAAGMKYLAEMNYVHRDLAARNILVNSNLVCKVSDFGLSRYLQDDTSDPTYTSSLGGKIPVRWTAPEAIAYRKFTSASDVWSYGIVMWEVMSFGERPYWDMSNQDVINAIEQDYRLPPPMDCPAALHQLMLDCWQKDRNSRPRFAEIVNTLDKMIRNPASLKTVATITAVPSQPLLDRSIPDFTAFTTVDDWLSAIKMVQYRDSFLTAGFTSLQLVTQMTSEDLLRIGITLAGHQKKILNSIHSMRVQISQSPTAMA
# [7] = test system: c-Src; assay: as above
# [8] = target: Hck (UniProt P08631); assay: as above
# [9] = target: Jak2 (UniProt O60674); assay: as above
# [10] = target: MERTK (UniProt Q12866); assay: as above
# Chain of MERTK (Q12866 whole entry, looked up): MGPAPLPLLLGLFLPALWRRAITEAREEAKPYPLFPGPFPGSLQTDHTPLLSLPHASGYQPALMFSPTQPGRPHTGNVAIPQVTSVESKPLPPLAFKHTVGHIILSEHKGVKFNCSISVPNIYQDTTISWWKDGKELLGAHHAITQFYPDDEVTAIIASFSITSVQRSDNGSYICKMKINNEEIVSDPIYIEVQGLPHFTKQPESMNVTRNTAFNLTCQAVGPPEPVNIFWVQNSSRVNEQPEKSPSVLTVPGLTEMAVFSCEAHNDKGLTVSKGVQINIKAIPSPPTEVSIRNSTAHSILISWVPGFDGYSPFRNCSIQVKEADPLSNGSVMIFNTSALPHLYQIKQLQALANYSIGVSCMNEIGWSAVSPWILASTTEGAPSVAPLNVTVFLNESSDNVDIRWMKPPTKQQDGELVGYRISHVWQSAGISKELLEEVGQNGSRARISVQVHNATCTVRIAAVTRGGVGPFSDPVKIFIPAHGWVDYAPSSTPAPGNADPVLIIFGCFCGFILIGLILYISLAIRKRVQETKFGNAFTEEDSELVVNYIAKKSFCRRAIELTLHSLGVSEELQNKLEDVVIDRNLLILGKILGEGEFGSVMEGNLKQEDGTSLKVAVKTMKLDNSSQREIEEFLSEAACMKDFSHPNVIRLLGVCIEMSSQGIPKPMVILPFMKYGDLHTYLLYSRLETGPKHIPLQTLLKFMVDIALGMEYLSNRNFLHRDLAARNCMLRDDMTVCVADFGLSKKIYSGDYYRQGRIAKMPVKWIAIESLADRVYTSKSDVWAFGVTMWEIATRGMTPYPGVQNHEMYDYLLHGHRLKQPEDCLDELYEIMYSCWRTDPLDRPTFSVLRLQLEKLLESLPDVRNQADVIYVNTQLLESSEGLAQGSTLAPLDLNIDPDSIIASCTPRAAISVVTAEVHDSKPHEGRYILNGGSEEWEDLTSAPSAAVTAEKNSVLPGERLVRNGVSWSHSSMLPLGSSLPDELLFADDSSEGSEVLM
# [11] = target: Fyn (UniProt P06241); assay: as above
# [12] = target: FGFR1 (UniProt P11362); assay: as above
# Chain of FGFR1 (P11362 whole entry, looked up): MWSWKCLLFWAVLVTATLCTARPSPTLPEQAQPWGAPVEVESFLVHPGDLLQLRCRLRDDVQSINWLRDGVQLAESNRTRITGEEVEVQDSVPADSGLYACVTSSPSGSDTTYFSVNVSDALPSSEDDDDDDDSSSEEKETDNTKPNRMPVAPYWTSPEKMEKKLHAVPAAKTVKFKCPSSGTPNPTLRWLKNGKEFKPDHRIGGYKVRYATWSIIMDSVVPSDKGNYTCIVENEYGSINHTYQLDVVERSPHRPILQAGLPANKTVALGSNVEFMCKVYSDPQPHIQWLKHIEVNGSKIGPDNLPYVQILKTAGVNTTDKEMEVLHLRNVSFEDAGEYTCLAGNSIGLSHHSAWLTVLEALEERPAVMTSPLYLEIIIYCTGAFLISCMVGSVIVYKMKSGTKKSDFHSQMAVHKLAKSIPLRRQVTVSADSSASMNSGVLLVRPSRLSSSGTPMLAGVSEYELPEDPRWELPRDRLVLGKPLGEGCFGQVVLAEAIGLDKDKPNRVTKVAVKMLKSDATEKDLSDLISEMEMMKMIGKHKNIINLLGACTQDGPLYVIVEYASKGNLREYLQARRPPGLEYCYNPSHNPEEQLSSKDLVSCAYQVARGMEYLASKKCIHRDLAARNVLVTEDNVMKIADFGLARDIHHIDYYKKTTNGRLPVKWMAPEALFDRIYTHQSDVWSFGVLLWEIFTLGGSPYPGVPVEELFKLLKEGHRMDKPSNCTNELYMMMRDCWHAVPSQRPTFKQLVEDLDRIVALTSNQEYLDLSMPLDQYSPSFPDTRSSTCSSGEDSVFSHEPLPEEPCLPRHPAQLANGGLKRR
# [13] = target: Fes (UniProt P07332); assay: as above
# Chain of Fes (P07332 whole entry, looked up): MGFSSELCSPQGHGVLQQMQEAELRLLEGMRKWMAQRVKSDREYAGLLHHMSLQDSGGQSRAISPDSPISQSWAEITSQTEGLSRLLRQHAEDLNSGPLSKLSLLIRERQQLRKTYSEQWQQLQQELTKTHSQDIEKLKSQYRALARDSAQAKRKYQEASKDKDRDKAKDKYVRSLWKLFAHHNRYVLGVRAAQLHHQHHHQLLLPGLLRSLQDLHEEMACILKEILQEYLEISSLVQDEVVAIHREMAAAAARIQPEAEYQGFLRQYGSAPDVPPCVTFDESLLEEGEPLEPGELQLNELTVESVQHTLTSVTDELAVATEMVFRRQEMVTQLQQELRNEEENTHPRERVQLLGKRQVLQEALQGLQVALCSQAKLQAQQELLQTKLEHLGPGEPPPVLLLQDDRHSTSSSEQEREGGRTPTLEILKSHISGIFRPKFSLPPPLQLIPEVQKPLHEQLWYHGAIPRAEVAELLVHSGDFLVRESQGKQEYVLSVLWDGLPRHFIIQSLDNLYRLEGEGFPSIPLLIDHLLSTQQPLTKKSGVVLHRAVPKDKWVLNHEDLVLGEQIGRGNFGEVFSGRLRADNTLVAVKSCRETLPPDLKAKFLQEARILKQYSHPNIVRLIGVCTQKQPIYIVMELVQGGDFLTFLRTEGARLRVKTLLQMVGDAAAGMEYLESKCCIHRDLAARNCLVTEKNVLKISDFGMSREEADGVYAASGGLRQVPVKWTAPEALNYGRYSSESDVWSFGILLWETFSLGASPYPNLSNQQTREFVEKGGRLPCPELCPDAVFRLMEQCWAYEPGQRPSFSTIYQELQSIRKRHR
# [14] = target: EPHB2 (UniProt P29323); assay: as above
# Chain of EPHB2 (P29323 whole entry, looked up): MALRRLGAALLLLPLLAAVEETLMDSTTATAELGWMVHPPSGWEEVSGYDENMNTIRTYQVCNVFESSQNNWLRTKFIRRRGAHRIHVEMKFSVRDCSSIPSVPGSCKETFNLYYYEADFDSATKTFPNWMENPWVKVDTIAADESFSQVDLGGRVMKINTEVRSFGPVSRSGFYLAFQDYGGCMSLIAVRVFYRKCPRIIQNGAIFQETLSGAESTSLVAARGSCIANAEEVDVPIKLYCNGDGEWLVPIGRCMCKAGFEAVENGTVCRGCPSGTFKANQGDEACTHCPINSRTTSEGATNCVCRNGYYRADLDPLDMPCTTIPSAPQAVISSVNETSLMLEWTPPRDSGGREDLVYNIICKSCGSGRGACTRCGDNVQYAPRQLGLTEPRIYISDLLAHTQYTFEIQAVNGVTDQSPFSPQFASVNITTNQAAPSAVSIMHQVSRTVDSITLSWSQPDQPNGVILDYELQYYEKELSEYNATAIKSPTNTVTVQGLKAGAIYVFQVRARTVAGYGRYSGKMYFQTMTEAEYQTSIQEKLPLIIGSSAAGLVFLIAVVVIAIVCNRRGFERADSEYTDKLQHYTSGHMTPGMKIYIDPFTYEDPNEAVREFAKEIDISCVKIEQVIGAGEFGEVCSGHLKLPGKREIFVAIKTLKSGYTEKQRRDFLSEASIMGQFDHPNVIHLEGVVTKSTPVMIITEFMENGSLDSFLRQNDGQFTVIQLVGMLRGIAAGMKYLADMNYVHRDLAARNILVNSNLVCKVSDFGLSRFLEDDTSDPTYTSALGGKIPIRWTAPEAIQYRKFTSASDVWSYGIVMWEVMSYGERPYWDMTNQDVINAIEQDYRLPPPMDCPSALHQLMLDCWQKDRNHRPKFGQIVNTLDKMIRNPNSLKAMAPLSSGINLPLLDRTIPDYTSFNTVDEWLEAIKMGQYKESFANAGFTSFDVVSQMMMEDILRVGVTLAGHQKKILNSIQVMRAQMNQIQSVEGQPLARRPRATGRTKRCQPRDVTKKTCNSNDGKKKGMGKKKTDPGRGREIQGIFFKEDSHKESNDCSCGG
# [15] = test system: AncSZ; assay: as above
# [16] = test system: Fer (mouse); assay: as above
# 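For SH2 binding enrichment of the phosphorylated peptide, bacterial display in this document: peptide library displayed on the E. coli surface as eCPX fusions, selected cells deep-sequenced, score is each peptide's frequency after selection divided by its frequency in the input.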
# 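For phosphorylation enrichment, bacterial display in this document: 11-residue human phosphosite peptides and single-mutation variants displayed on the E. coli surface, counted by deep sequencing, each peptide's frequency after selection divided by its frequency in the unselected input library; frequency after pTyr selection over input frequency; kinase dosed for 20-30% of maximal phosphorylation in three min.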
SH2 binding enrichment [1],SH2 binding enrichment [2],SH2 binding enrichment [3],Sequence,phosphorylation enrichment [4],phosphorylation enrichment [5],phosphorylation enrichment [6],phosphorylation enrichment [7],phosphorylation enrichment [8],phosphorylation enrichment [9],phosphorylation enrichment [10],phosphorylation enrichment [11],phosphorylation enrichment [12],phosphorylation enrichment [13],phosphorylation enrichment [14],phosphorylation enrichment [15],phosphorylation enrichment [16]
0.913,1.15,0.99,LLANAYIFDVQ [L1CAM_Y418_V421D_YF],0.896,1.17,0.933,1.03,0.598,1.73,0.718,1.09,0.874,1.84,0.838,1.73,0.755
1.05,1.45,1.25,LLKAGYHGVLR [TTPA_Y100],0.926,0.679,0.686,0.906,0.453,0.903,0.631,0.693,0.646,1.35,0.562,0.964,0.671
1.36,1.05,0.856,LLREWYVQDPY [SIX3_Y225_L226V],0.674,0.771,0.598,0.641,0.328,0.798,0.44,0.531,0.597,1.05,0.675,1.18,0.566
1.35,1.7,1.34,LLVVLNKFRCF [PSEN1_Y154_Y154N_YF],2.08,1.18,0.951,1.05,0.837,1.66,0.795,1.02,1.1,1.88,1.11,1.82,0.951
0.777,1.17,0.87,LLVVLYKYRCY [PSEN1_Y154],1.57,0.615,0.318,0.609,0.708,0.974,0.746,0.532,0.686,1.79,0.642,1.11,0.699
0.446,0.779,0.656,LNARHYGGLTG [PGAM2_Y92_E89A],0.668,0.513,0.376,0.631,0.542,0.606,0.44,0.301,0.567,0.573,0.3,0.585,0.634
0.682,0.723,1.29,LNEWHYGGLTG [PGAM2_Y92_R90W],0.626,0.891,0.444,0.52,0.738,0.84,0.365,0.662,0.58,1.12,0.452,0.74,0.636
0.488,0.945,0.578,LNPDGYKKAFE [CPXM2_Y427_E428K_YF],1.28,0.833,0.727,0.827,0.54,1.68,0.727,0.495,0.866,2.1,0.793,1.02,0.67
0.486,0.873,1.55,LNPFIYSLRNR [OR1A1_Y288],0.974,0.579,0.437,2.23,1.28,1.43,0.493,0.657,0.891,1.55,0.618,1.46,0.6
0.522,0.771,0.633,LQKPMYEVQWK [KIT_Y553],1.36,1.49,2.63,0.617,0.788,1.42,1.28,0.81,0.851,1.32,0.912,1.29,0.83
0.709,0.943,0.865,LQPNNCQFCGG [CSF1R_Y969_Y969C],1.07,1.21,0.735,0.647,0.987,1.05,0.785,0.752,0.752,0.858,0.711,0.929,0.348
0.435,0.76,0.727,LRRREYQRQDY [PRKRIP1_Y90],0.554,0.683,0.706,0.565,0.621,0.289,0.541,0.706,0.532,0.64,0.786,0.841,0.504
3.83,0.714,0.461,LRSRVYEVPVE [SLC26A3_Y756_N753S],0.719,0.833,0.773,0.708,1.25,0.795,1.66,0.962,0.722,0.91,1.03,1.01,2.09
1.24,0.65,0.449,LRYDSYSSYCN [SLC20A2_Y433],0.824,0.849,2.74,1.27,0.949,0.865,1.38,0.837,0.619,1.12,5.07,1.32,0.577
0.841,1.89,1.4,LSGVIYVILRK [PMP22_Y153],0.923,1.11,0.46,0.484,0.513,0.633,0.364,0.279,0.443,0.823,0.23,1.01,0.504
0.417,0.654,0.616,LTFDEYRNNSQ [ANXA3_Y216_I219N],1.13,0.632,0.431,0.753,0.443,1.38,0.4,0.675,0.573,1.24,0.682,0.762,0.553

SH2 binding enrichment [1],SH2 binding enrichment [2],SH2 binding enrichment [3],Sequence,phosphorylation enrichment [4],phosphorylation enrichment [5],phosphorylation enrichment [6],phosphorylation enrichment [7],phosphorylation enrichment [8],phosphorylation enrichment [9],phosphorylation enrichment [10],phosphorylation enrichment [11],phosphorylation enrichment [12],phosphorylation enrichment [13],phosphorylation enrichment [14],phosphorylation enrichment [15],phosphorylation enrichment [16]
0.564,0.911,0.885,LTTEVYFPSIK [C5orf64_Y60_A57T],0.766,0.661,0.436,0.563,0.541,0.703,0.562,0.77,0.775,0.895,0.628,0.946,0.482
0.569,0.792,1.4,LVMFIYAISGM [SCN1A_Y1684_F1687S],1.17,1.01,0.931,0.85,0.727,1.17,0.725,0.442,0.48,1.99,0.927,1.2,0.813
0.515,0.894,0.7,LVSCTYQLARG [FGFR2_Y608],0.91,0.698,0.536,0.783,0.483,0.983,0.443,0.579,0.452,1.08,0.62,1.23,0.605
2.08,1.29,1.36,LWKWRYEELKE [CCDC102B_Y299_K298R],1.7,1.02,1.28,0.715,0.561,2.73,0.909,0.629,0.503,2.5,1.09,1.34,0.771
0.54,1.09,1.48,LWQSIYNLEAE [TNNT2_Y251],0.881,1.05,0.793,6.57,7.01,0.921,0.664,12.4,0.66,1.45,0.791,1.33,0.544
0.974,1.08,0.635,MAFDRYVAICA [OR52J3_Y125_V128I],0.362,0.708,1.12,0.394,0.555,0.726,0.386,0.454,0.586,0.808,0.659,0.939,0.562
0.919,1.12,1.03,MARDIYQASYY [LTK_Y672_R673Q],3.09,1.19,2.55,6.26,6.75,0.78,5.18,5.45,1.41,0.879,3.03,1.04,1.97
0.548,0.746,0.713,MFDKEYFSVHN [MET_Y1234_YF],0.782,1.31,0.605,0.632,0.513,1.46,0.393,0.488,1.84,1.03,0.566,1.31,0.451
0.494,0.742,0.753,MFVKSYTIHFS [F5_Y2153_YF],0.851,0.736,0.565,0.48,0.495,1.05,0.456,0.482,0.49,1.19,0.579,1,0.464
0.656,0.77,0.605,MGGSLYFSYPD [HIKESHI_Y55_V54L],1.16,3.12,4.44,4.41,3.45,2.11,7.06,3.46,3.4,1.26,5.75,1.49,0.802
2.84,0.921,1.92,MGSYNYLGFPR [SPTLC2_Y178_A182P],1.04,1.48,5.53,0.735,1.39,3.81,6.35,0.511,2.29,0.748,2.77,0.806,0.59
0.572,0.86,0.609,MHDSNCVSKGS [PDGFRA_Y849_Y849C],0.559,0.485,0.396,0.414,0.456,0.683,0.384,0.387,0.456,0.72,0.367,0.57,0.388
0.56,0.959,0.652,MIAIRYSHSRR [ACOXL_Y260_T255M],0.473,0.518,0.539,0.426,0.43,0.434,0.353,0.444,0.377,0.487,0.465,0.875,0.324
0.708,0.835,0.794,MILSAYALGGL [CPS1_Y590_R587L],0.736,0.675,0.655,0.584,0.497,0.928,0.436,0.458,0.431,1,0.562,0.894,0.552
0.543,0.831,0.545,MKALGYFAVGT [OPA1_Y498_V502G],0.7,0.64,0.469,0.487,0.489,1.92,0.355,0.432,0.479,0.973,0.486,0.798,0.395

Sequence,SH2 binding enrichment [1],SH2 binding enrichment [2],SH2 binding enrichment [3],phosphorylation enrichment [4],phosphorylation enrichment [5],phosphorylation enrichment [6],phosphorylation enrichment [7],phosphorylation enrichment [8],phosphorylation enrichment [9],phosphorylation enrichment [10],phosphorylation enrichment [11],phosphorylation enrichment [12],phosphorylation enrichment [13],phosphorylation enrichment [14],phosphorylation enrichment [15],phosphorylation enrichment [16]
LRYEVYGGENE [STOX1_Y610],1.64,0.677,0.56,0.775,0.692,0.765,0.77,0.828,1.09,0.499,0.615,0.631,1.25,0.729,1.33,0.623
MENFIYESMRY [CYP19A1_Y361],0.627,0.819,0.553,1.25,0.728,5.46,6.18,6.76,0.839,2.31,8.43,0.569,3.6,3.32,1.23,13.1
